Results: article PMC11589570 (Nature Communications, 2024)
No end group written: not given here.

Tests used:
Settings in all cases: both partners purified
LC3B_(1-120) = LC3B_(1-120) (human, UniProt Q9GZQ8 1-120); test: fluorescence polarisation; tracer displacement: 30 nM Cy5-labelled p62 LIR probe with 4 µM LC3/GABARAPs, small-molecule compounds titrated from 20 µM to 20 nM; same assay buffer; 1 h at room temperature
LC3C_(1-126) = LC3C_(1-126) (human, UniProt Q9BXW4 1-126); test: as above
GABARAP_(1-116) = GABARAP_(1-116) (human, UniProt O95166 1-116); test: as above
GABARAPL1_(1-117) = GABARAPL1_(1-117) (human, UniProt Q9H0R8 1-117); test: as above
GABARAPL2_(1-117) = GABARAPL2_(1-117) (human, UniProt P60520 1-117); test: as above
LC3A_(1-120) = LC3A_(1-120) (human, UniProt Q9H492 1-120); test: fluorescence polarisation; direct titration: 30 nM Cy5-labelled p62 LIR probe, purified LC3/GABARAPs titrated from 55 µM to 600 pM; 50 mM HEPES pH 7.5, 150 mM NaCl, 5 % glycerol, 1 mM TCEP, 0.05% TWEEN20; 1 h at room temperature; 384-well plate

Measured: binding result

B1: fluorescently labeled p62 LIR probe (SDNSSGGDDDWTHLSSK-Cy5) (peptide)
peptide: SDNSSGGDDDWTHLSSK-Cy5
notes: also called p62 LIR peptide linked to a Cy5 fluorophore; tracer
binds: LC3B_(1-120) | LC3C_(1-126) | GABARAP_(1-116) | GABARAPL1_(1-117) | GABARAPL2_(1-117) | LC3A_(1-120)
